The values that follow come from PMC8799719.

The first experiment deals with insoluble type I collagen fibers from bovine achilles tendon, P02453;P02465. The experiment is described as follows: fluorescence detection of EGFP fusion binding to collagen. The note with it: parent: est. 100; read off a plot.
On to “EGFP-PPC (PPC domain of VhaC fused to EGFP) D751A”, for which the percent of parent was determined as 3%. Still for that read-out and setting: as for “EGFP-PPC (PPC domain of VhaC fused to EGFP) E755A”, the figure is 51%. In the case of “EGFP-PPC (PPC domain of VhaC fused to EGFP) E778A”, the percent of parent amounted to 21%. Regarding “EGFP-PPC (PPC domain of VhaC fused to EGFP) K753A”, the percent of parent worked out at 100%.

In the case of “EGFP-PPC (PPC domain of VhaC fused to EGFP) W729A”, the percent of parent came out at 58%. With “EGFP-PPC (PPC domain of VhaC fused to EGFP) W761A”, the percent of parent came out at 7%. Take “EGFP-PPC (PPC domain of VhaC fused to EGFP) W770A”: the percent of parent amounted to 100%.

Turning to “EGFP-PPC (PPC domain of VhaC fused to EGFP) W789A”, the percent of parent turned out to be 19%. For the substance “EGFP-PPC (PPC domain of VhaC fused to EGFP) Y756A”, the percent of parent was 9%. Turning to “EGFP-PPC (PPC domain of VhaC fused to EGFP) Y788A”, the percent of parent was 73%.

In the case of “EGFP-PPC (PPC domain of VhaC fused to EGFP) Y791A”, the percent of parent is 13%.

Another experiment has the same target. The experiment in a line: fluorescence detection of EGFP fusion binding to collagen fibers. The settings on record: parent: est. 100; read off a plot.
As to “activator domain-EGFP (VhaC activator domain fused to EGFP) D207A”, the percent of parent stood at 70%. Take “activator domain-EGFP (VhaC activator domain fused to EGFP) E294A”: the percent of parent stood at 85%. Turning to “activator domain-EGFP (VhaC activator domain fused to EGFP) F107A”, the percent of parent is 20%.

Take “activator domain-EGFP (VhaC activator domain fused to EGFP) F160A”: the percent of parent stood at 86%.

Consider “activator domain-EGFP (VhaC activator domain fused to EGFP) F286A”, for which the percent of parent amounted to 51%.

For “activator domain-EGFP (VhaC activator domain fused to EGFP) N290A”, the percent of parent was 88%. Take “activator domain-EGFP (VhaC activator domain fused to EGFP) R153A”: the percent of parent is 32%. For the substance “activator domain-EGFP (VhaC activator domain fused to EGFP) R293A”, the percent of parent was found to be 93%. On the same count and under the same terms, as for “activator domain-EGFP (VhaC activator domain fused to EGFP) W234A”, the figure is 69%; as for “activator domain-EGFP (VhaC activator domain fused to EGFP) Y157A”, 42%.
